From patent US20200369777A1 (Bristol-Myers Squibb, published 2020)

How the values were obtained:
human OX40 [1] = molecular target: T1, human OX40 (human, UniProt P43489 29-277); assay: Flow cytometry receptor occupancy on human CD4+ T cells cultured with CHO-OKT3-CD32A cells
T1 construct: also called TNFRSF4; CD134
T1 sequence: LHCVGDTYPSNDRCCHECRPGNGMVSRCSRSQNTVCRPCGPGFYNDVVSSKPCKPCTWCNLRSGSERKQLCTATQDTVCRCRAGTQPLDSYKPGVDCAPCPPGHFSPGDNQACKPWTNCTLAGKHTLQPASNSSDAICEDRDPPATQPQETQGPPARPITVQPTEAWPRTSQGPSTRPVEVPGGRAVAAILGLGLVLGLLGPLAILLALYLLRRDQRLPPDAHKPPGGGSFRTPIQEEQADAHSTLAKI

human OX40 [2] = molecular target: T1, human OX40; assay: Emax PK-PD model: trough serum concentration (Cmin1) against blood receptor occupancy on CD4+ T cells at C2D1, 16 cancer patients, flow cytometry; in vivo blood receptor occupancy vs trough serum concentration (Cmin1), Emax PK-PD model; not an in vitro titration
Text: (§1) This Example describes a PK-PD model for predicting receptor occupancy in human patients. The drug concentration-time profile was described by a linear two-compartment PK model using population PK analysis. […] The individual drug exposure (Cmin1: trough concentration after first dose) in the alternative dose schedule was predicted based on the PPK model, which was used in subsequent PK-PD model development.
(§2) wherein drug concentration is Cmin1, the trough concentration after first dose, ROₘₐₓ is the maximum percentage of blood RO and EC₅₀ is the drug concentration corresponding to 50% of ROₘₐₓ. From this analysis, the drug EC₅₀ was estimated to be 0.094 μg/mL (FIG. 8B). The trial […] was conducted to predict blood RO at alternative dosing schedules by using the established PK-PD relationship (Emax model), as well as taking into account inter-subject variability of PK and PD (FIG. 9).

human OX40 [3] = molecular target: T1, human OX40; assay: cell-based or functional assay
cynomolgus OX40 = molecular target: T2, cynomolgus OX40 (cynomolgus, UniProt P43489 29-277 (human entry)); assay: flow cytometry, binding to activated cynomolgus T cells
T2 chain: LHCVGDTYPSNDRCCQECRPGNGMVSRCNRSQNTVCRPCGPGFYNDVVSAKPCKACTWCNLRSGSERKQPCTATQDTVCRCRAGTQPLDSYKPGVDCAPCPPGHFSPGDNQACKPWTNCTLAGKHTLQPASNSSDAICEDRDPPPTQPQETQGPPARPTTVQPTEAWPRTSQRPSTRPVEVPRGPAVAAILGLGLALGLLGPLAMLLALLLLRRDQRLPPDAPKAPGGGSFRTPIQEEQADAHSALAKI

mouse OX40 = molecular target: T3, mouse OX40 (mouse, UniProt P47741 20-272); assay: flow cytometry, binding to activated mouse T cells
T3 construct: whole, on cells; also called murine OX40
T3 sequence (looked up): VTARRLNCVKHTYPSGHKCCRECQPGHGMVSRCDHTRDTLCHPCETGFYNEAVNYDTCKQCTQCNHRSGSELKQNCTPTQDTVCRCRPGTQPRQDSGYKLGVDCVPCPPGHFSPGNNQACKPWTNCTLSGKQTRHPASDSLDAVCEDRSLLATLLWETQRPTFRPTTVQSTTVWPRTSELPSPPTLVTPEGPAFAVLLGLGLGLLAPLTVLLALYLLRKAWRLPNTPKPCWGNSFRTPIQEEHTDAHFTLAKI

human OX40 [4] = molecular target: T1, human OX40; assay: Flow cytometry on human CD4+ T cells cultured with CHO-OKT3-CD32A cells; bound OX40.21 detected with APC anti-human Fc. Total surface OX40 changes along the same titration
Experimental: Briefly, total T cells were purified from human whole blood using Ficoll gradient centrifugation. CD4+ T cells were isolated from PBMCs using the Miltenyi CD4+ isolation kit. Isolated T cells were cultured in the presence of irradiated CHO-OKT3-CD32A (artificial antigen presenting cells) and in the presence of serial dilutions of OX40.21 or isotype control. Receptor occupancy was determined as the ratio of bound OX40 antibody to total surface OX40 using flow cytometry. Bound antibody was assessed by adding fluorescent conjugated anti-human Fc after washing the T cells. Total OX40 was determined by adding a saturating amount of OX40 antibody to the T cells. Following incubation, cells were washed and stained by adding fluorescent conjugated anti-human FC.

human OX40 [5] = molecular target: T1, human OX40; assay: Flow cytometry receptor occupancy on human CD4+ T cells cultured with CHO-OKT3-CD32A cells; remark: listed apart in the source
human OX40 [6] = molecular target: T1, human OX40; assay: flow cytometry, binding to activated human T cells
human OX40 [7] = molecular target: T1, human OX40; assay: Emax model (RO = Emax x Cmin1 / (EC50 + Cmin1)) of the trough concentration after the first dose against peripheral blood RO on CD4+ T cells at C2D1 in patients. The text prints the value rounded, 0.094 ug/mL. No Emax value is printed; the median curve runs from about 92 % at 20 mg to about 99 % at 320 mg
Text: as §1, §2

B1: OX40.21 (antibody, human IgG1, kappa, V domains shown)
VH: EVQLVQSGGGLVQPGGSLRLSCAGSGFTFSSYAMYWVRQAPGKGLEWVSAIDTDAGTFYADSVRGRFTISRDNAKNSLYLQMNSLRAEDTAVYFCARLGEGYFFDYWGQGTLVTVSS
VL: EIVLTQSPATLSLSPGERATLSCRASQSVSSYLAWYQQKPGQAPRLLIYDASNRATGIPARFSGSGSGTDFTLTISSLEPEDFAVYYCQQRSNWPPTFGGGTKVEIKR
notes: also called OX40.21 (human)
For B1, the “EC50 (read off the curve)” value (human OX40 [1]) was ~0.3 nM, the EC50 (human OX40 [2]) was 0.094 µg/mL and the “EC50 of internalization (mean circle spot total intensity) in CD3/CD28-activated Tregs. The table prints no unit; the axis is 'Log nM Ab'” value (human OX40 [3]) was 0.0779 nM. The EC50 (cynomolgus OX40) was 0.068 nM, the binding result (mouse OX40) was “no binding” and the “EC50 (read off the curve)” value (human OX40 [4]) was ~0.1 nM. For the same binder, the “EC50 (read off the curve)” value (human OX40 [5]) was ~0.3 nM, the EC50 (human OX40 [6]) was 0.072 nM and the EC50 (human OX40 [7]) was 0.0937 µg/mL.
